Experimental findings from US20200079842A1 (NETRIS PHARMA, published 2020) are described below.

For orientation: IC50 means the midpoint of a concentration-inhibition curve. Read a low IC50 as inhibition by little substance. For orientation: EC50 means the midpoint of the concentration-response curve. Higher therefore signals a need for much substance. Broadly, the koff is the rate constant with which the complex falls apart. By EC50 (read off the curve) is commonly meant the concentration that produces a half-maximal response. The low end stands for an effect from little substance, the high end for a need for much substance. What is called Kd is the equilibrium constant for the complex coming apart. A lower Kd goes with higher affinity. In general, kon refers to the rate constant with which the complex forms.

Where a chain is given by its changes, count along the chain named. Values joined by “and” are separate entries in the source; they are usually repeats but may differ in a detail not shown here. Equal values may be shown once.

For assay [1], the target named is T1, FLAG-tagged netrin-1 (Adipogen) (human, UniProt O95631 25-604, limits assumed).
T1 construct: Bought protein; also called FLAG®-tagged Netrin-1 (APOTECH); not shown: FLAG tag
Description: competition ELISA: FLAG-netrin-1 binding to coated UNC5B-Fc. As to the method: (§1) After three washings with 300 μL of PBS-0.05% TWEEN®-20 (PBS-T), the plate was blocked by addition of 100 μL of PBS-2% BSA and incubated 1 hour at room temperature. After three washings with 300 μL of PBS-T, the plate was incubated for 1 hour at room temperature, with 100 μL of PBS-1% BSA containing 50 ng/mL FLAG®-tagged netrin-1 (Adipogen) and various quantities (0.2 ng to 3000 ng) of the 4C11 antibody. After three washings with 300 μL of PBS-T, 100 μL of an anti-FLAG® M2 monoclonal antibody conjugated to horse radish peroxidase (HRP) (Sigma A8592) diluted 1/5,000 in PBST-1% BSA was added and the plate was incubated 1 hour at room temperature. After three washings with 300 μL of PBS-T, 100 μL of a luminescent substrate of HRP (ECL western blotting substrate, PIERCE) is added. After 5 to 10 minutes, the luminescence was read on a Tecan Infinite F-500 luminometer.
On the technique in general: An ELISA detects its analyte on a solid surface through an enzyme-linked reagent.

The target of assay [2] is T2, His-tagged Netrin-1 (R&D 6419-N1) (human, UniProt O95631 25-604).
T2 construct: Bought protein; also called adsorbed netrin-1; not shown: His tag
Description: ELISA, coated His-tagged netrin-1, luminescence. As to the method:
White 96-well microtiter plate (Costar 3912 Corning) was incubated overnight at 4° C. with 100 ng of His-tagged Netrin-1 (R&D 6419-N1) in 100 μL of Phosphate buffer saline (PBS). After three washings with 300 μL of PBS-0.05% TWEEN®-20 (PBS-T), the plate was blocked by addition of 100 μL of PBS-3% BSA and incubated 1 hour at room temperature. After three washings with 300 μL of PBS-T, the plate was incubated with various quantities (10 ng to 1200 ng) of the anti-netrin-1 antibody. After three washings with 300 μL of PBS-T, 100 μL of a relevant secondary antibody conjugated to horse radish peroxidase (e.g. goat anti-human IgG (Fc) Sigma A0170 or goat anti-mouse IgG light chain specific (kappa) Jackson Immunoresearch 115-035-174) diluted 1/10,000 in PBST-3% BSA was added and the plate was incubated 1 hour at room temperature. After three washings with 300 μL of PBS-T, 100 μL of a luminescent substrate of HRP (ECL western blotting substrate, PIERCE) is added. After 5 to 10 minutes, the luminescence was read on a Tecan Infinite F-500 luminometer.

The target in assay [3] is T3, human netrin-1 (human, UniProt O95631 25-604, limits assumed).
T3 construct: also called NET1; netrin-I
In words: SPR (Biacore T100), 4C11 captured, netrin-1 as analyte, 25° C.; Exp 1. As to the method:
(§2) Murine 4C11 (IgG1) antibody (SEQ ID NO: 12 and 13) was captured via amine coupled capture molecules. A series with increasing concentrations of netrin-1 was injected. Chip surface with amine coupled capture molecule alone was used as reference control surface for correction of possible buffer-effects or non-specific binding of netrin-I.
(§3) Analyte sample: Classical concentration series were measured at a flow rate of 50 μL/min by consecutive injection of the analyte in 5 or 6 increasing concentrations (c 2-164 nM). Running buffer: 20 mM Hepes pH7.4, 600 mM NaCl, 0.005% TWEEN® 20. The analyte was injected for 3 minutes followed by a dissociation phase of 90 s.
(§4) Kinetic parameters were then calculated by using the usual double referencing (control reference: binding of analyte to capture molecule; Flow Cell: netrin-1 concentration “0” as Blank) and calculation with model ‘titration kinetics 1: 1 binding.
In general terms: SPR reads the build-up and loss of mass on a sensor chip optically.

Assay [4] concerns the target T1, FLAG-tagged netrin-1 (Adipogen). Description: ELISA-type assay, netrin-1 coated on the plate (legend paragraph 28: FLAG-tagged Netrin-1, APOTECH; Example 3: His-tagged Netrin-1, R&D), anti-mouse IgG-HRP, luminescence. As for the experimental part: FIG. 1: ELISA binding assay of murine 4C11 to human Netrin-1. Various concentrations of 4C11 were incubated onto 96-well microtiter plate coated with FLAG®-tagged Netrin-1 (APOTECH). Bound 4C11 was detected using a goat anti-mouse IgG conjugated with horseradish peroxidase (Jackson Immunoresearch) and a chemiluminescent substrate (PIERCE ECL western blotting substrate). The luminescent was read on a Tecan Infinite F-500 luminometer.

The target is the same in assay [5]. In words: competition ELISA: FLAG-tagged netrin-1 with rising 4C11 on coated UNC5B-Fc, bound netrin-1 detected with anti-FLAG-HRP, luminescence. As for the experimental part:
FIG. 2: Inhibition of Netrin-1 binding onto UNC5B-Fc by 4C11. FLAG®-tagged Netrin-1 (APOTECH) in presence of various concentrations of 4C11 were incubated onto 96-well microtiter plate coated with UNC5B-Fc (Netris). Bound Netrin-1 was detected using an anti-FLAG® antibody conjugated with horseradish peroxidase (Sigma) and a chemiluminescent substrate (PIERCE ECL western blotting substrate). The luminescence was read on a Tecan Infinite F-500 luminometer.
as §1

Assay [6] concerns the target T3, human netrin-1. In words: SPR (Biacore T100), 4C11 captured, netrin-1 as analyte, 25° C. As to the method: as §2, §3, §4

B1: murine 4C11 (IgG1) antibody (antibody, V domains shown)
VH: QAYLQQSGAELVRPGASVKMSCKASGYTFTSYNMHWVKQTPRQGLEWIGAIYPGNGDTSYNQKFKGKATLTVDKSSSTAYMQLSSLTSEDSAVYFCARGGTGFAYWGQGTLVTVSA
VL: SIVMTQTPKFLLVSAGDRVTITCKASQSVSNDVAWYQQKPGQSPKLLIYYASNRYTGVPDRFTGSGYGTDFTFTISTVQAEDLAVYFCQQDYSSPWTFGGGTKLEIKR
notes: also called NET1-M-mAb; 4C11 murine IgG1
For the molecule B1, in assay [1], the half-maximal inhibitory concentration (IC50) was 0.075 µg/mL and 0.502 nM. Further, in assay [2], the EC50 is 0.057 µg/mL and 0.38 nM. Besides, the koff in the assay with human netrin-1 [3] is 0.0018 s⁻¹. For the same molecule, the “EC50 (read off the curve)” value in assay [4] was ~0.03 µg/mL. Besides, in assay [5], the “IC50 (read off the curve)” value was ~0.6 nM. In the assay with human netrin-1 [6], the Kd is 13.3 nM and 12.7 nM; the kon stood at 140000 M⁻¹ s⁻¹.

B2: 4C11 Fab (Fab, V domains shown)
VH: B1 VH
VL: SIVMTQTPKFLLVSAGDRVTITCKASQSVSNDVAWYQQKPGQSPKLLIYYASNRYTGVPDRFTGSGYGTDFTFTISTVQAEDLAVYFCQQDYSSPWTFGGGTKLEIK
notes: only the variable domains are tied to it; also called Fab fragment of murine 4C11
For the molecule B2, the IC50 in assay [1] is 0.844 µg/mL and 16.9 nM. Besides, the EC50 in assay [2] is 13 nM and 0.65 µg/mL.

B3: 4C11 Fab′2 (other)
VH: B1 VH
VL: B2 VL
notes: only the variable domains are tied to it; also called Fab′2 fragment of murine 4C11
As for B3, the IC50 in assay [1] was 0.089 µg/mL and 0.89 nM. Also, the EC50 in assay [2] was 0.035 µg/mL and 0.35 nM.

B4: 4C11 murine IgG2a (antibody, V domains shown)
VH: B1 VH
VL: B2 VL
Regarding B4, in assay [1], the IC50 was 0.085 µg/mL and 0.567 nM. The EC50 in assay [2] was 0.063 µg/mL and 0.42 nM.

B5: HUM03 (antibody, human IgG1, V domains shown)
VH: QVQLQQSGPGLVKPSQTLSLTCAISGYTFTSYNMHWVRQATGQGLEWMGAIYPGNGDTSYNQKFKGRLTISKDTSKNQVVLTMTNMDPVDTATYYCARGGTGFAYWGQG
VL: DIQMTQSPSSLSASVGDRVTITCKASQSVSNDVAWYQQKPGQAPRLLIYYASNRYTGIPPRFSGSGYGTDFTLTINNIESEDAAYYFCQQDYSSPWTFGQG
notes: also called Humanized 4C11; humanized 4C11 hum03
Regarding B5, the IC50 in assay [1] was 0.065 µg/mL and 0.434 nM. In assay [2], the EC50 is 0.166 µg/mL and 1.11 nM.

B6: HUM10 (antibody, human IgG1, V domains shown)
VH: QVQLQQSGPGLVKPSQTLSLTCAISGYTFTSYNMHWIRQPPGKGLEWIGAIYPGNGDTSYNQKFKGRVTITADKSTSTAYMELSSLRSEDTAVYYCARGGTGFAYWGQG
VL: B5 VL
notes: also called humanized 4C11 variant HUM10
Take B6: in assay [1], the IC50 is 0.11 µg/mL and 0.734 nM. Besides, the EC50 in assay [2] was 0.211 µg/mL and 1.41 nM.

B7: HUM08 (antibody, human IgG1, V domains shown)
VH: B5 VH
VL: DIQMTQSPSSLSASVGDRVTITCKASQSVSNDVAWYLQKPGQSPQLLIYYASNRYTGVPSRFSGSGSGTDFTFTISSLEAEDAATYYCQQDYSSPWTFGQG
notes: also called humanized 4C11 variant HUM08
Take B7: the IC50 in assay [1] is 0.077 µg/mL and 0.514 nM. The 50% effective concentration (EC50) in assay [2] is 0.134 µg/mL and 0.894 nM.

B8: HUM01 (antibody, human IgG1, V domains shown)
VH: QVQLVQSGAEVKKPGASVKVSCKASGYTFTSYNMHWVRQATGQGLEWMGAIYPGNGDTSYNQKFKGRVTITADKSTSTAYMELSSLRSEDTAVYYCARGGTGFAYWGQG
VL: EIVMTQSPATLSVSPGERATLSCKASQSVSNDVAWYQQKPGKAPKLLIYYASNRYTGIPPRFSGSGYGTDFTLTINNIESEDAAYYFCQQDYSSPWTFGQG
notes: also called humanized 4C11 variant HUM01
In the case of B8, the IC50 in assay [1] was 0.054 µg/mL and 0.36 nM. In addition, in assay [2], the EC50 was 0.134 µg/mL and 0.894 nM.

B9: HUM09 (antibody, human IgG1, V domains shown)
VH: B8 VH
VL: DIVMTQTPLSLPVTPGEPASISCKASQSVSNDVAWYQQKPGQAPRLLIYYASNRYTGIPPRFSGSGYGTDFTLTINNIESEDAAYYFCQQDYSSPWTFGQG
notes: also called humanized 4C11 variant HUM09
Turning to B9, the IC50 in assay [1] is 0.071 µg/mL and 0.474 nM. Moreover, the EC50 in assay [2] was 0.153 µg/mL and 1.02 nM.

B10: HUM06 (antibody, human IgG1, V domains shown)
VH: B8 VH
VL: B5 VL
notes: also called humanized 4C11 variant HUM06
On to B10, for which the IC50 in assay [1] is 0.082 µg/mL and 0.547 nM. The EC50 in assay [2] was 0.139 µg/mL and 0.927 nM.

B11: HUM05 (antibody, human IgG1, V domains shown)
VH: QVQLQESGPGLVKPSQTLSLTCTVSGYTFTSYNMHWVRQAPGQGLEWMGAIYPGNGDTSYNQKFKGRVTISVDTSKNQFSLKLSSVTAADTAVYYCARGGTGFAYWGQG
VL: B7 VL
notes: also called humanized 4C11 variant HUM05
Take B11: the IC50 in assay [1] is 0.085 µg/mL and 0.567 nM. For the same molecule, in assay [2], the EC50 was 0.151 µg/mL and 1.01 nM.

B12: HUM04 (antibody, human IgG1, V domains shown)
VH: EVQLVQSGAEVKKPGESLRISCKGSGYTFTSYNMHWVRQATGQGLEWMGAIYPGNGDTSYNQKFKGRFTISRDDSKNTAYLQMNSLKTEDTAVYYCARGGTGFAYWGQG
VL: B7 VL
notes: also called humanized 4C11 variant HUM04
With B12, in assay [1], the IC50 is 0.199 µg/mL and 1.33 nM. For the same molecule, the EC50 in assay [2] was 0.198 µg/mL and 1.32 nM.

B13: HUM07 (antibody, human IgG1, V domains shown)
VH: B6 VH with I37V, P40A, P41T, K43Q, I48M
VL: B7 VL
notes: also called humanized 4C11 variant HUM07
For B13, the IC50 in assay [1] was 0.089 µg/mL and 0.594 nM. For the same molecule, in assay [2], the EC50 is 0.125 µg/mL and 0.834 nM.

B14: HUM02 (antibody, human IgG1, V domains shown)
VH: B6 VH
VL: B7 VL with Y36F, L37Q, K39R, Q45R, L46R
notes: also called humanized 4C11 variant HUM02
As to B14, the half-maximal inhibitory concentration (IC50) in assay [1] is 0.215 µg/mL and 1.43 nM. The EC50 in assay [2] is 0.26 µg/mL and 1.73 nM.
